Assay results as given in patent US9632088B2, “Methods and compositions for gamma-secretase assay” (MEMORIAL SLOAN-KETTERING CANCER CENTER, priority 2010, dated 2017).
Changes are numbered by the printed parent chain. In names and notes the source's numbering stands.

Tests used:
[1] = molecular target: T1, γ-secretase (HeLa membrane) (Homo sapiens, UniProt P49768); assay: In vitro N1-Sb1 γ-secretase assay (ALPHA detection with SM320), HeLa membrane; format: biochemical
T1 construct: host or cells: HeLa-S3 cells, total membrane fraction
Method: (§1) HeLa membrane fraction was isolated from HeLa-S3 cells (National Cell Culture Center). The cell pellet was resuspended in Buffer A (50 mM MES, 150 mM KCl, 5 mM CaCl2, 5 mM MgCl2) and lysed by passage through a French Press. N2a cells (murine neuroblastoma cells) over-expressing wild-type PS1, or mutants M146L or E280A, were obtained from Dr. Sangram Sisodia (University of Chicago, Chicago, Ill.). These cells were maintained in 50% Dulbecco's modified Eagle's medium high glucose, 50% Opti-Mem Reduced Serum Media, and 10% fetal calf serum. Cultured cells were pelleted by centrifugation and resuspended in hypotonic buffer (40 mM Tris, pH 7.4, 10 mM NaCl, 1 mM EDTA, and 0.5 mM DTT) for 20 minutes before being lysed with a dounce homogenizer. Nuclear debris from the HeLa and N2a cells were pelleted at 3000 rpm for 30 minutes. The resulting supernatants were ultracentrifuged at 100,000×g for 1 hour. The pellet that contained total cell membrane was resuspended in Buffer A. Mouse brains overexpressing knock-in wild type or M146V PS1 (gift from Dr. Hui Zheng, Amylin Pharmaceuticals, San Diego, Calif.) were homogenized with dounce homogenizer. The cell lysate was centrifuged at 3000 rpm for 30 minutes. The supernatants were ultracentrifuged at 100,000×g for 1 hour. Protein concentration was determined with the DC Protein Assay Kit according to the manufacturer's instructions (Bio-Rad, Hercules, Calif.).
An in vitro γ-secretase assay using a novel recombinant APP-derived substrate (termed “Sb4”) is disclosed in co-pending application U.S. Ser. No. 12/776,141. In the present assay based on a Notch-derived substrate, N1-Sb1 was incubated with the cell membrane fraction, prepared as described above, in the presence of 0.25% CHAPSO and 1×PIPES buffer (50 mM PIPES, pH 7.0, 150 mM KCl, 5 mM CaCl2, 5 mM MgCl2. The reaction was incubated at 37° C. for 2 hours. The Perkin Elmer AlphaScreen™ detection system was employed to assay for Notch cleavage. AlphaScreen (PerkinElmer Life and Analytical Sciences, Shelton, Conn.) is a bead based non-radioactive Amplified Luminescent Proximity Homogeneous Assay (ALPHA). When a biological interaction brings the beads together, a cascade of chemical reactions acts to produce a greatly amplified signal. Specifically, upon laser excitation, a photosensitizer in the “Donor” bead converts ambient (triplet) oxygen to the more reactive singlet state. […] As a result no fluorescence signal at 520-620 nm is produced.
(§2) In the present system, antibody SM320, Protein A-conjugated acceptor beads, and Streptavidin-conjugated donor beads (PerkinElmer) were added to the reaction at a final concentration of 0.2 μg/ml, 2.5 μg/ml and 5 μg/ml, respectively (diagrammed in FIG. 5A). […] The ALPHA signal was detected using the Envision plate reader (Perkin Elmer). The reactions were excited at 680 nm and signal was detected at 615 nm.
HeLa membrane was incubated with N1-Sb1 substrate in the presence of 0.25% CHAPSO. The γ-secretase cleavage product (cN1-Sb1) was detected by the PerkinElmer proximity assay (ALPHA) using the SM320 antibody, Protein A-conjugated acceptor-beads (which bind SM320) and streptavidin-conjugated donor-beads (which bind biotin) (FIG. 5A). cN1-Sb1 levels in DMSO-treated assay was 10-fold higher than in the presence of the inhibitor L-685,458 (L458; structure shown below)-treated assay. […]

[2] = molecular target: T2, wild-type PS1 γ-secretase (Homo sapiens, UniProt P49768); assay: In vitro N1-Sb1 γ-secretase assay, membrane of N2a cells expressing wild-type PS1; format: biochemical, murine; details: for reactivity (rate of γ-secretase cleavage) compared with WT substrate: WT PS1, N2a membrane
T2 construct: total membrane
Method: as §1
(§3) An in vitro γ-secretase assay using a novel recombinant APP-derived substrate (termed “Sb4”) is disclosed in co-pending application U.S. Ser. No. 12/776,141. In the present assay based on a Notch-derived substrate, N1-Sb1 was incubated with the cell membrane fraction, prepared as described above, in the presence of 0.25% CHAPSO and 1×PIPES buffer (50 mM PIPES, pH 7.0, 150 mM KCl, 5 mM CaCl2, 5 mM MgCl2. The reaction was incubated at 37° C. for 2 hours. The Perkin Elmer AlphaScreen™ detection system was employed to assay for Notch cleavage. AlphaScreen (PerkinElmer Life and Analytical Sciences, Shelton, Conn.) is a bead based non-radioactive Amplified Luminescent Proximity Homogeneous Assay (ALPHA). When a biological interaction brings the beads together, a cascade of chemical reactions acts to produce a greatly amplified signal. Specifically, upon laser excitation, a photosensitizer in the “Donor” bead converts ambient (triplet) oxygen to the more reactive singlet state. The singlet state oxygen molecules diffuse into the solvent, and may react with a thioxene derivative in the Acceptor bead if nearby, generating chemiluminescence at 370 nm that further activates fluorophores contained in the same bead. The fluorophores subsequently emit light at 520-620 nm. In the absence of a specific biological interaction, the singlet state oxygen molecules produced by the donor bead go undetected without the close proximity of the acceptor bead. As a result no fluorescence signal at 520-620 nm is produced.
(§4) In the present system, antibody SM320, Protein A-conjugated acceptor beads, and Streptavidin-conjugated donor beads (PerkinElmer) were added to the reaction at a final concentration of 0.2 μg/ml, 2.5 μg/ml and 5 μg/ml, respectively (diagrammed in FIG. 5A). The reaction was incubated in the dark at room-temperature for 4 hours. The ALPHA signal was detected using the Envision plate reader (Perkin Elmer). The reactions were excited at 680 nm and signal was detected at 615 nm.
(§5) The effects of PS1 FAD mutations on Notch cleavage were determined using the new γ-secretase assay described in Example 2. The activities of two PS1 FAD mutations—PS1 M146L and E280A were compared against wild-type PS1 (WT), which has been previously studied (25). Total membrane was isolated from N2a cells that stably express WT, M146L, or E280A mutants. N1-Sb1 was incubated with these membranes and the resulting cN1-Sb1 was detected with SM320. […] The M146L and E280A mutants had 40% and 14% activity remaining, respectively, compared to the activity of the wild type (FIG. 7A). […]

M146L PS1 γ-secretase = molecular target: T3, M146L PS1 γ-secretase (Homo sapiens, UniProt P49768, M146L); assay: In vitro N1-Sb1 γ-secretase assay, membrane of N2a cells expressing M146L PS1; format: biochemical, murine; details: M146L PS1, N2a membrane
T3 construct: total membrane
Method: as §1, §3, §4, §5

E280A PS1 γ-secretase = molecular target: T4, E280A PS1 γ-secretase (Homo sapiens, UniProt P49768, E280A); assay: In vitro N1-Sb1 γ-secretase assay, membrane of N2a cells expressing E280A PS1; format: biochemical, murine; details: E280A PS1, N2a membrane
T4 construct: total membrane
Method: as §1, §3, §4, §5

[3] = molecular target: T5, WT PS1 γ-secretase (knock-in mouse brain) (Mus musculus, UniProt P49769); assay: In vitro N1-Sb1 γ-secretase assay, knock-in wild type PS1 mouse brain membrane; format: biochemical
T5 construct: Total membrane from these mouse brains was isolated; tissue gift from Dr. Hui Zheng; host or cells: mouse brain (PS1 knock-in), total membrane
Method: as §1, with “The pellet that contained total cell membrane was resuspended in Buffer A. Mouse brains overexpressing knock-in wild type or M146V PS1 (gift from Dr. Hui Zheng, Amylin Pharmaceuticals, San Diego, Calif.) were homogenized with dounce homogenizer. The cell lysate was centrifuged at 3000 rpm for 30 minutes. The supernatants were ultracentrifuged at 100,000×g for 1 hour.” left out
(§6) An in vitro γ-secretase assay using a novel recombinant APP-derived substrate (termed “Sb4”) is disclosed in co-pending application U.S. Ser. No. 12/776,141. […] As a result no fluorescence signal at 520-620 nm is produced.
as §2
(§7) Mouse brain specimens were obtained that either expressed knock-in wild type PS1 or the M146V PS1 mutation (25, 26). […] The cN1-Sb1 cleavage product was detected with the new in-vitro γ-secretase assay of Example 2. […]

[4] = test system: M146V PS1 γ-secretase (knock-in mouse brain); assay: In vitro N1-Sb1 γ-secretase assay, knock-in M146V PS1 mouse brain membrane; format: biochemical
Method: as §1, §6, §2, §7

[5] = read-out: Km for N1-Sb1 cleavage

B1: N1-Sb1: biotinylated recombinant substrate: human Notch1 fragment (residues 1733-1812) with AviTag (protein)
chain: PAQLHFMYVAAAAFVLLFFVGCGVLLSRKRRRQHGQLWFPEGFKVSEASKKKRREPLGEDSVGLKPLKNASDGALMDDNQN
modifications: biotinylated; Notch substrate N1Sb1 (NTM2)
notes: biotinylated recombinant substrate: human Notch1 fragment (residues 1733-1812) with AviTag
Vmax of N1-Sb1 cleavage ([1]; arbitrary units): 38 Unit/μg/min
Km ([1]; read-out: apparent Km of N1-Sb1 cleavage by γ-secretase): 0.15 ± 0.03 µM
Vmax for N1-Sb1 cleavage ([2]; PS1 wild-type, N2a membrane): 293 U/μg/min
Km ([2]; PS1 wild-type, N2a membrane, read-out: Km for N1-Sb1 cleavage): 0.07 µM
N1-Sb1 cleavage activity remaining compared to wild type PS1 (M146L PS1 γ-secretase): 40%
Vmax for N1-Sb1 cleavage (M146L PS1 γ-secretase): 163 U/μg/min
Km (M146L PS1 γ-secretase; [5]): 0.049 µM
N1-Sb1 cleavage activity remaining compared to wild type PS1 (E280A PS1 γ-secretase): 14%
Vmax for N1-Sb1 cleavage (E280A PS1 γ-secretase): 49 U/μg/min
Km (E280A PS1 γ-secretase; [5]): 0.05 µM
Vmax for N1-Sb1 cleavage ([3]; WT PS1 mouse brain membrane): 52 U/μg/min
Km ([3]; WT PS1 mouse brain membrane, read-out: Km for N1-Sb1 cleavage): 0.06 µM
Notch (N1-Sb1) cleavage activity compared to wild-type PS1 ([4]; M146V PS1 mouse brain membrane): less activity
Vmax for N1-Sb1 cleavage ([4]; M146V PS1 mouse brain membrane): 40 U/μg/min
Km ([4]; M146V PS1 mouse brain membrane, read-out: Km for N1-Sb1 cleavage): 0.048 µM

B2: C1752A: N1-Sb1 substrate with P2 residue Cys 1752 substituted with Ala (protein, UniProt P46531 1733-1812, looked up, variant C1752A)
chain: QLHFMYVAAAAFVLLFFVGAGVLLSRKRRRQHGQLWFPEGFKVSEASKKKRREPLGEDSVGLKPLKNASDGALMDDNQNE
modifications: biotinylated AviTag
notes: N1-Sb1 substrate with P2 residue Cys 1752 substituted with Ala
reactivity (rate of γ-secretase cleavage) compared with WT substrate [2]: 20-30%
reactivity (rate of γ-secretase cleavage) compared with WT substrate (M146L PS1 γ-secretase): 20-30%
reactivity (rate of γ-secretase cleavage) compared with WT substrate (E280A PS1 γ-secretase): 20-30%

B3: C1752V: N1-Sb1 substrate with P2 residue Cys 1752 substituted with Val (protein, UniProt P46531 1733-1812, looked up, variant C1752V)
chain: B2 chain with A20V
modifications: biotinylated AviTag
notes: N1-Sb1 substrate with P2 residue Cys 1752 substituted with Val
reactivity (rate of γ-secretase cleavage) compared with WT substrate [2]: no effect
reactivity (rate of γ-secretase cleavage) compared with WT substrate (M146L PS1 γ-secretase): 141.3±17.9%
reactivity (rate of γ-secretase cleavage) compared with WT substrate (E280A PS1 γ-secretase): no effect

B4: C1752M: N1-Sb1 substrate with P2 residue Cys 1752 substituted with Met (protein, UniProt P46531 1733-1812, looked up, variant C1752M)
chain: B2 chain with A20M
modifications: biotinylated AviTag
notes: N1-Sb1 substrate with P2 residue Cys 1752 substituted with Met
reactivity (rate of γ-secretase cleavage) compared with WT substrate [2]: no effect
reactivity (rate of γ-secretase cleavage) compared with WT substrate (M146L PS1 γ-secretase): 166.4±6.1%
reactivity (rate of γ-secretase cleavage) compared with WT substrate (E280A PS1 γ-secretase): 185.5±7.4%
reactivity (rate of γ-secretase cleavage) compared with WT substrate ([3]; WT PS1 knock-in mouse brain): no effect
reactivity (rate of γ-secretase cleavage) compared with WT substrate ([4]; M146V knock-in PS1 mouse brain): 127.4±3.7%
